Where “and” joins values, the source holds several entries; their conditions need not be identical. Identical values can stand only once. One block for each binder: values may come before it.
Columns and labels:
[1] = biological target: T1, Recombinant human PD-1-Fc (human, UniProt Q15116 25-167); assay: competition
[2] = biological target: Recombinant human PD-1 (Beijing Yiqiao Shenzhou, Cat. No. 10377-H08H) (human, UniProt Q15116 25-167); assay: ELISA
[3] = biological target: human HER2 (Beijing Yiyi) (human, UniProt P04626 23-652); assay: ELISA
[4] = biological target: T1, Recombinant human PD-1-Fc; assay: competition ELISA; blocking PD-1/PD-L2
[5] = biological target: T1, Recombinant human PD-1-Fc; assay: competition ELISA; blocking PD-1/PD-L1

IC50 [1]: 2.06 nM and 1.95 nM
B1: anti-PD-1BJHM/anti-HER2 heterodimeric bispecific antibody (bispecific antibody)
heavy 1: not shown
light 1: DIVLTQSPATLSVTPGDSVSLSCRANQSISNNLHWYQQRSHESPRLLIRFASQSISGIPSRFSGSGSGTDFTLSINSVETEDFGMYFCQQSDNWPLTFGAGTKLEIKRTVAAPSVFIFPPSDEQLKSGTASVVCLLNNFYPREAKVQWKVDNALQSGNSQESVTEQDSKDSTYSLSSTLTLSKADYEKHKVYACEVTHQGLSSPVTKSFNRGEC
heavy 2: not shown
light 2: not shown

EC50 [2]: > 0.08 nM
EC50 [3]: > 20 nM
IC50 [4]: > 1.11 nM
IC50 [5]: > 1.2 nM
B2: PD-1 MONOCLONAL ANTIBODYBJHM (antibody, V domains shown)
VH: EVQLQESGGGLVKPGGSLKLSCAASGFTFSSYGMSWVRQTPEKRLEWVASISGGGRYTYYPDSMKGRFTISRDNAKNNLHLQMSSLRSEDTALYYCVYEYFYTMDYWGQGTSVTVSS
VL: DIVLTQSPATLSVTPGDSVSLSCRANQSISNNLHWYQQRSHESPRLLIRFASQSISGIPSRFSGSGSGTDFTLSINSVETEDFGMYFCQQSDNWPLTFGAGTKLEIK

IC50 [1]: 3.68 nM and 4.54 nM
B3: anti-PD-1pem/anti-HER2 heterodimeric bispecific antibody (bispecific antibody)
heavy 1: not shown
light 1: EIVLTQSPATLSLSPGERATLSCRASKGVSTSGYSYLHWYQQKPGQAPRLLIYLASYLESGVPARFSGSGSGTDFTLTISSLEPEDFAVYYCQHSRDLPLTFGGGTKVEIKRTVAAPSVFIFPPSDEQLKSGTASVVCLLNNFYPREAKVQWKVDNALQSGNSQESVTEQDSKDSTYSLSSTLTLSKADYEKHKVYACEVTHQGLSSPVTKSFNRGEC
heavy 2: not shown
light 2: not shown

EC50 [3]: > 20 nM
B4: PD-1 MONOCLONAL ANTIBODYpem (antibody, V domains shown)
VH: QVQLVQSGVEVKKPGASVKVSCKASGYTFTNYYMYWVRQAPGQGLEWMGGINPSNGGTNFNEKFKNRVTLTTDSSTTTAYMELKSLQFDDTAVYYCARRDYRFDMGFDYWGQGTTVTVSS
VL: EIVLTQSPATLSLSPGERATLSCRASKGVSTSGYSYLHWYQQKPGQAPRLLIYLASYLESGVPARFSGSGSGTDFTLTISSLEPEDFAVYYCQHSRDLPLTFGGGTKVEIK
